According to US12264201B2, “Bispecific antibody targeting IL-1R1 and NLPR3” (University of Ulster, priority 2018, dated 2025):

What was measured:
THP1 cells [1] = assay: IL-1β release from LPS/ATP-stimulated differentiated THP1 cells (ELISA); assay type: cell-based; settings: PMA-differentiated THP1; LPS 1 μg/ml 3 h, Ab 30 min (0.0025-2.5 ng/ml or 1 nM), ATP 5 mM 1 h; supernatant ELISA; FIG. 33
Experimental: THP1 cells, for FIGS. 33a and b, were cultured in 96-well plates at 100,000 cells/200 μl complete media. PMA (100 μg/ml for 72 hours) was used to differentiate THP-1 cells into macrophages. Following 24 hours of rest, differentiated THP1 cells were stimulated with LPS (1 μg/ml) for 3 hours, treated with MCC950 (1 μM) or the IL-1R1/NLRP3 Ab in a dose dependent fashion from 0.0025 ng/ml to 2.5 ng/ml for FIG. 33a or with IL-1R1/NLRP3 Ab (1 nM) for FIG. 33b or with IgG control antibody for 30 minutes, followed by ATP (5 mM) for 1 hour. IL-1β release was measured in the supernatant by ELISA.

THP1 cells [2] = assay: Caspase-1 activation in THP1 cells (FAM-FLICA staining, confocal); assay type: cell-based
Experimental: THP1 cells, for FIG. 34, were cultured in 96-well plates at 100,000cells/200 ul complete media. PMA (100 ug/ml for 72 hours) was used to differentiated THP-1 cells into macrophages. Following 24 hours of rest, differentiated THP1 cells were stimulated with LPS (1 ug/ml) for 3 hours, treated with the IL-1R1/NLRP3 Ab (1 μg/ml) for 30 minutes, followed by ATP (5 mM) for 1 hour. Caspase-1 activation was assessed by staining cells with a non-cytotoxic Fluorescent Labelled Inhibitor of Caspase-1 (FAM-FLICA) and DAPI (nuclear stain). Cells were treated with LPS alone (negative control), LPS+ATP (positive control), mouse IgG2a (1 ug/ml, Ab control), or IL-1r/NLRP3 bi-specific Ab (1 ug/ml, experimental). Representative confocal images are shown for each group. Green=active caspae-1 and blue=Dapi/nuclear stain.
(§1) Internalization of Inflamab—see FIG. 35. THP1 cells, for FIG. 35, were cultured in 96-well plates at 100,000cells/200 ul complete media. Differentiation of THP1 cells was induced by PMA (100 ug/ml for 72 hours). Following 24 hours of rest, differentiated THP1 cells were stimulated with LPS (1 ug/ml) for 3 hours, treated with a pHrodo red labelled IL-1r/NLRP3 Ab (1 ug/ml) for 30 minutes, followed by ATP (5 mM) for 1 hour. The internalization of the Ab was tracked using a pHrodo red labelled bi-specific Ab that only fluoresces when internalized.

THP1 cells [3] = assay: Internalization of pHrodo red labelled bi-specific Ab in THP1 cells; assay type: cell-based; settings: pHrodo red labelled Ab 1 ug/ml 30 min; differentiated THP1, LPS then ATP; confocal; FIG. 35A
Experimental: as §1

apoE−/− mice = assay: In vivo LPS challenge, serum IL-1β and TNF-α by ELISA; settings: LPS 50 μg/kg i.v., FIG. 37
Experimental: Female apoE−/− mice were fed a Western-type diet containing 0.25% cholesterol and 15% cacao butter (SDS, Sussex, UK) starting 1 week prior to treatment and throughout the experiment. Diet and water were provided ad libitum. After 1 week of diet feeding, mice were injected intraperitoneally with PBS or InflaMab (100 μg or 200 μg) administrated on day 10 and day 14. After 2 weeks of diet and a 1-week treatment mice were challenged intravenously with LPS (50 μg/kg, Salmonella minnesota R595, List Biological Laboratories Inc.) and blood was collected after 0.5, 1, 2 and 4 hours. After 4 hours mice were sacrificed and serum levels of IL-1β and TNF-α were measured by ELISA.
IL-1beta, but not TNFalpha, is inhibited in vivo via LPS challenge—see FIG. 37. Female apoE−/− mice, after 1 week on WTD, were injected intraperitoneally with PBS or InflaMab (100 μg or 200 μg) administrated on day 10 and day 14. After 2 weeks of diet and a 1-week treatment mice were challenged intravenously with LPS (50 μg/kg) and (a) IL-1β and (b) TNF-α were measured by ELISA.

B1: InflaMab: 210 kDa bispecific mouse antibody to IL-1R1 and NLRP3; light chain SEQ ID NO: 57, heavy chain with scFv SEQ ID NO: 59 (protein)
light: MVSSAQFLGLLLLCFQGTRCDIVMTQSPATLSVTPGDRVSLSCRASQSISDYLSWYQQRSHESPRLIIKYASQSISGIPSRFSGSGSGSDFTLSINSVEPEDVGVYYCQHGHSFPLTFGSGTKLELKRADAAPTVSIFPPSSEQLTSGGASVVCFLNNFYPKDINVKWKIDGSERQNGVLNSWTDQDSKDSTYSMSSTLTLTKDEYERHNSYTCEATHKTSTSPIVKSFNRNEC
heavy: MGWTLVFLFLLSVTAGVHSQIQLVQSGPELRKPGETVRISCKASGYPFTTAGLQWVQKMSGKGLKWIGWMNTQSEVPKYAEEFKGRIAFSLETAASTAYLQINNLKTEDTATYFCAKSVYFNWRYFDVWGAGTTVTVSSAKTTAPSVYPLAPVCGDTTGSSVTLGCLVKGYFPEPVTLTWNSGSLSSGVHTFPAVLQSDLYTLSSSVTVTSSTWPSQSITCNVAHPASSTKVDKKIEPRGPTIKPCPPCKCPAPNLLGGPSVFIFPPKIKDVLMISLSPIVTCVVVDVSEDDPDVQISWFVNNVEVHTAQTQTHREDYNSTLRVVSALPIQHQDWMSGKEFKCKVNNKDLPAPIERTISKPKGSVRAPQVYVLPPPEEEMTKKQVTLTCMVTDFMPEDIYVEWTNNGKTELNYKNTEPVLDSDGSYFMYSKLRVEKKNWVERNSYSCSVVHEGLHNHHTTKSFSRTPGKGSAGGSGGDSEVQLVESGGGLVKPGGSLKLSCAASGFTFSDYYMYWVRQTPEKRLEWVATISDGGTYTYYPDSVKGRFTISRDNAKNNLYLQMNSLKSEDTAMYYCARGWVSTMVKLLSSFPYWGQGTLVTVSAGGGGSGGGGSGGGGSQAVVTQESALTTSPGETVTLTCRSSTGAVTTSNYANWVQEKPDHLFTGLIGGTNNRAPGVPARFSGSLIGDKAALTITGAQTEDEAIYFCALWYSNYWVFGGGTKLTVLGQPK
IL-1β release (THP1 cells [1]): prevents
caspase-1 activation (THP1 cells [2]; differentiated THP1, LPS 1 ug/ml 3 h, Ab 1 μg/ml 30 min, ATP 5 mM 1 h, FAM-FLICA, FIG. 34): prevents
caspase-1 activation in THP1 cells that have internalized the bi-specific Ab as compared to cells that did not (THP1 cells [2]; pHrodo red labelled Ab 1 ug/ml 30 min, LPS then ATP, confocal, FIG. 35B): significant reduction
internalization of the Ab (THP1 cells [3]): shows the internalization
IL-1beta secretion in vivo (apoE−/− mice; female apoE−/− mice on Western-type diet, 100 μg or 200 μg i.p. day 10 and 14): specifically inhibit
secretion of TNFalpha in vivo (apoE−/− mice; female apoE−/− mice, 100 μg or 200 μg i.p., specificity): no effect
